# In publication PMC4227968:
# T1: CzrA (Bacillus subtilis, UniProt O31844 1-107)
# T1 sequence: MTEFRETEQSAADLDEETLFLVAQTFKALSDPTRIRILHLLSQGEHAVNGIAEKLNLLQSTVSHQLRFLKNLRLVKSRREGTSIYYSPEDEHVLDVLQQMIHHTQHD
# Target: T1, CzrA
# Test: fluorescence anisotropy
binder,measurement,value
cadA promoter operator 28 bp (dsDNA) DNA 1: TTATATATGAGTATATGCTCATATATAT DNA 2: ATATATATGAGCATATACTCATATATAA,binding result,binds
